Key:
[1] = target: T1, MSLN-Avi ectodomain (human ectodomain of MSLN) (human, UniProt Q13421 296-598, limits assumed); test: written beside the structure of the 1A12 Fab on MSLN; no assay named on the sheet (the value is the rounded SPR fit of FIG. 7A)
T1 construct: extracellular domain; Expressed in 293-F cells as the fusion sFlag-His-Scn-tev-MSLN-Avi and cleaved with TEV protease; It was the analyte in SPR, and I take it to be the MSLN in the Fab:MSLN crystal complex as well; not shown: Avi tag
Description: (§1) Surface plasmon resonance (SPR) experiments were performed at 25° C. on a BIACORE™ T100 instrument (GE Healthcare) with a Series S CM4 chip using a running buffer of 10 mM HEPES, pH 7.4, 150 mM NaCl, 3 mM EDTA, 0.05% surfactant P20 with 0.1 mg/mL bovine serum albumin. Goat anti-human Fc antibody (Jackson Labs: 109005098) was amine coupled to the CM4 chip (˜2800 RUs) and each antibody was then captured on a single flow cell of immobilized goat anti-human Fc. The purified MSLN-Avi (discussed above) was run as a concentration series at 50 uL/min over the captured antibodies and the goat anti-human Fc reference surface. CM4 chip was regenerated with 10 mM glycine, pH1.5 for 30 sec at 50 uL/min. Data was double referenced and analyzed in BiaEval 2.0.4.

[2] = target: T1, MSLN-Avi ectodomain (human ectodomain …); test: SPR, Biacore T100, 25 C; antibody captured on goat anti-human Fc (57.1 +/- 0.8 RUs), MSLN-Avi as analyte 2.0-1000 nM in duplicate, 1:1 fit
Description: as §1

T1 sequence (Q13421 other isoform, or with tags, fused parts or gaps limits assumed): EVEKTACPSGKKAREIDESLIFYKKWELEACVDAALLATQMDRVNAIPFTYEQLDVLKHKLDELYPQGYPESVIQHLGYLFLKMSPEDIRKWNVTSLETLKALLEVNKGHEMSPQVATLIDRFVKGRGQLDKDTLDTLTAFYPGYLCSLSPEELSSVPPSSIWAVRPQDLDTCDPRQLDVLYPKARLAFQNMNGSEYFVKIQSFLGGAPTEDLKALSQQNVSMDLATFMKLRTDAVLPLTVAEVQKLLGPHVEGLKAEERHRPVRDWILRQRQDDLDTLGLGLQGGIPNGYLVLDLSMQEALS

- Kd [1]: 64 nM
- Kd [2]: 64.4 nM
- koff [2]: 0.00458 s⁻¹
- kon [2]: 71100 M⁻¹ s⁻¹
B1: 1A12 anti-MSLN antibody (antibody, human IgG1, V domains shown)
VH: EVQLLESGGGLVQPGGSLRLSCAASGLTFRSYAMTWVRQAPGKGLEWVSGISVSGGITYYADSVKGRFTISRDNSKNTLYLQMNSLRAEDTAVYYCAKRGAAVGSFDYWGQGTLVTVSS
VL: DIQMTQSPSSLSASVGDRVTITCRSSQGIGSWLAWYQQKPEKAPQSLIYAASSLQSGVPSRFSGSGSGTDFTLTISNLQPEDFATYYCQQYNSYPLTFGGGTKVEIK
notes: also called 1A12b; anti-MSLN 1A12 antibody

— patent US20210309755A1 (FRED HUTCHINSON CANCER CENTER, published 2021)
